Source: patent publication US20120225828A1 (PALATIN TECHNOLOGIES, published 2012)
Each block holds one binder with its values, some of them ahead of it. Bridge positions count the residues as written; N and C are the ends. Square brackets hold non-standard residues; d marks the D form. Nle = CCCC[C@H](N)C(=O)O; Orn = NCCC[C@H](N)C(=O)O; Dab = NCC[C@H](N)C(=O)O; Dap = NC[C@H](N)C(=O)O

Target: human melanocortin-1 receptor hMCR-1 expressed by the human melanoma cell line HBL (human, UniProt Q01726 1-317)
Assay: cell-based or functional assay

Chain of human melanocortin-1 receptor hMCR-1 expressed by the human melanoma cell line HBL (Q01726 whole entry): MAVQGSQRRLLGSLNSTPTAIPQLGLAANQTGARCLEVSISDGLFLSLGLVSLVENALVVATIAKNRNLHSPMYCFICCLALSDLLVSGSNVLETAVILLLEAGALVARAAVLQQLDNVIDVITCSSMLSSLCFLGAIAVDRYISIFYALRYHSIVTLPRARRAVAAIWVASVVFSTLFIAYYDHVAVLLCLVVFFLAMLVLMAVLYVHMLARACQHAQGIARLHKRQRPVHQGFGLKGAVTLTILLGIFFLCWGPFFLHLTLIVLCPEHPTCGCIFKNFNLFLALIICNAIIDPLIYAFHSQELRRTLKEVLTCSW

Binder: Ac-[Nle]ER[dF]R[Dab]W-NH2 (lactam 2-6) [Ac-Nle-cyclo(Glu-Arg-D-Phe-Arg-Dab)-Trp-NH2 (SEQ ID NO: 53)]
- MC-1 Emax (average; cAMP HBL): 100%

B1: Ac-Nle-cyclo(Glu-His-D-Phe-Arg-Dab)-Lys-NH2 (peptide)
peptide: Ac-[Nle]EH[dF]R[Dab]K-NH2
modifications: lactam 2-6
SMILES: CCCC[C@H](NC(C)=O)C(=O)N[C@H]1CCC(=O)NCC[C@@H](C(=O)N[C@@H](CCCCN)C(N)=O)NC(=O)[C@H](CCCNC(=N)N)NC(=O)[C@@H](Cc2ccccc2)NC(=O)[C@H](Cc2c[nH]cn2)NC1=O
- MC-1 EC50 (average; cAMP HBL): 0.175 nM
- MC-1 Emax (average; cAMP HBL): 91%

Binder: Ac-[Nle]EK[dF]R[Dab]W-NH2 (lactam 2-6) [Ac-Nle-cyclo(Glu-Lys-D-Phe-Arg-Dab)-Trp-NH2]
- MC-1 Emax (average; cAMP HBL): 108%

B3: Ac-Nle-cyclo(Glu-His-D-Phe-Ala-Dab)-NH2 (SEQ ID NO: 48) (peptide)
peptide: Ac-[Nle]EH[dF]A[Dab]-NH2
modifications: lactam 2-6
SMILES: CCCC[C@H](NC(C)=O)C(=O)N[C@H]1CCC(=O)NCC[C@@H](C(N)=O)NC(=O)[C@H](C)NC(=O)[C@@H](Cc2ccccc2)NC(=O)[C@H](Cc2c[nH]cn2)NC1=O
- MC-1 EC50 (average; cAMP HBL): 44 nM
- MC-1 Emax (average; cAMP HBL): 73%

B4: Ac-Nle-cyclo(Glu-His-D-Phe-Gly-Dab)-Trp-NH2 (SEQ ID NO: 50) (peptide)
peptide: Ac-[Nle]EH[dF]G[Dab]W-NH2
modifications: lactam 2-6
SMILES: CCCC[C@H](NC(C)=O)C(=O)N[C@H]1CCC(=O)NCC[C@@H](C(=O)N[C@@H](Cc2c[nH]c3ccccc23)C(N)=O)NC(=O)CNC(=O)[C@@H](Cc2ccccc2)NC(=O)[C@H](Cc2c[nH]cn2)NC1=O
- MC-1 EC50 (average; cAMP HBL): 4 nM
- MC-1 Emax (average; cAMP HBL): 59%

Binder: Ac-[Nle]EA[dF]R[Dab]W-NH2 (lactam 2-6) [Ac-Nle-cyclo(Glu-Ala-D-Phe-Arg-Dab)-Trp-NH2 (SEQ ID NO: 52)]
- MC-1 Emax (average; cAMP HBL): 86%

B6: Ac-Nle-cyclo(Glu-His-D-Phe-Arg-Dab)-NH2 (SEQ ID NO: 47) (peptide)
peptide: Ac-[Nle]EH[dF]R[Dab]-NH2
modifications: lactam 2-6
SMILES: CCCC[C@H](NC(C)=O)C(=O)N[C@H]1CCC(=O)NCC[C@@H](C(N)=O)NC(=O)[C@H](CCCNC(=N)N)NC(=O)[C@@H](Cc2ccccc2)NC(=O)[C@H](Cc2c[nH]cn2)NC1=O
- MC-1 EC50 (average; cAMP HBL): 0.32 nM
- MC-1 Emax (average; cAMP HBL): 85%

Now from value to binder:

- MC-1 Emax (average; cAMP HBL): 51%
B2: Ac-Nle-cyclo(Glu-His-D-Phe-Dab)-NH2 (peptide)
peptide: Ac-[Nle]EH[dF][Dab]-NH2
modifications: lactam 2-5
SMILES: CCCC[C@H](NC(C)=O)C(=O)N[C@H]1CCC(=O)NCC[C@@H](C(N)=O)NC(=O)[C@@H](Cc2ccccc2)NC(=O)[C@H](Cc2c[nH]cn2)NC1=O

- MC-1 EC50 (average; cAMP HBL): 0.016 nM
- MC-1 Emax (average; cAMP HBL): 85%
Binder: Ac-[Nle][Dap]H[dF]R[Dab]W-NH2 (linker 2-6 via C(:O)‑(CH2)2‑C(:O)) [Ac-Nle-cyclo(Dap-His-D-Phe-Arg-Dab)-Trp-NH2 with bridge C(═O)-(CH2)2-C(═O)]

- MC-1 Emax (average; cAMP HBL): 108%
Binder: Ac-[Nle]E[Dab][dF]R[Dab]W-NH2 (lactam 2-6) [Ac-Nle-cyclo(Glu-Dab-D-Phe-Arg-Dab)-Trp-NH2]

- MC-1 EC50 (average; cAMP HBL): 0.115 nM
- MC-1 Emax (average; cAMP HBL): 72%
B5: Ac-Nle-cyclo(Glu-His-D-Phe-Ala-Dab)-Trp-NH2 (SEQ ID NO: 51) (peptide)
peptide: Ac-[Nle]EH[dF]A[Dab]W-NH2
modifications: lactam 2-6
SMILES: CCCC[C@H](NC(C)=O)C(=O)N[C@H]1CCC(=O)NCC[C@@H](C(=O)N[C@@H](Cc2c[nH]c3ccccc23)C(N)=O)NC(=O)[C@H](C)NC(=O)[C@@H](Cc2ccccc2)NC(=O)[C@H](Cc2c[nH]cn2)NC1=O

- MC-1 Emax (average; cAMP HBL): 109%
Binder: Ac-[Nle]E[Orn][dF]R[Dab]W-NH2 (lactam 2-6) [Ac-Nle-cyclo(Glu-Orn-D-Phe-Arg-Dab)-Trp-NH2]
